Assay results as given in the DeepSol protein solubility set.

assay: soluble on expression in E. coli; label from the status in PepcDB or PDB records

Row | Sequence | soluble on expression in E. coli
1 | SDTGFADSNNDSSPGEGSKRGNSGIEGPVPMDVELAAAKSKRLSEPFFLKNVLLEKSGDTSDLTALALSVHAVMLESGFVLLDHGSDKFSFSKKLLSVSLRYTLPELITRKDTNTVESVTVRFQNIGPRLVVYGTLGGSCKRVHMTSLDKSRFLPVIDLVVDTLKFEKQGSSSYYREVFMLWRMVKDELVIPLLIGLCDKAGLESPPCLMLLPTELKLKILELLPGVSIGYMACVCTEMRYLASDNDLWEHKCLEEGKGCLWKLYTGDVDWKRKFASFWRRKRLDLLARRNPPIKKSNPRFPTLFPDRRDRREPFDRFGPSDFYRFGLRDPRDRFGPRDPRDPHFYGFRY | soluble
2 | MNKNKPFIVVIVGPTASGKTELSIELAKRINGEIISGDSMQVYKHMNIGTAKVTPEEMDGIPHHLIDILNPDDTFSAYEFKRLAEDLITDITNRGKVPIIAGGTGLYIQSLIYNYELEDETVTPAQLSIVKQKLSALEHLDNQQLHDYLAQFDAVSAENIHPNNRQRVLRAIEYYLKTKKLLSNRKKVQQFTENYDTLLLGIEMSRKTLYSRINKRVDIMLDHGLFREVQQLVEQGYESCQSMQAIGYKELIPVINGQMIYEDAVNDLKQHSRQYAKRQMTWFKNKMSVHWLDKENMSLQMMLDEITTQIKLEHHHHHH | soluble
3 | MTAGEVLSQSEIDALLAALSAGEMSAEELKKEEEGRRVKTYDFRRALRFSKDQIRSLTRIHENFARLLTTFFSAQLRTYVQISVASADQIPYEEFVRSIPKMTIINVFEVPPLGGHVLLEVNPNIAYAMLDRVMGGRGVGMDKVEHLTEIETRIMSNLFDKAFVHWRDAWESVAEVDPLFVDFEVNPQFLRMIAPNDTVVVISLNTQIGEARGMMNVCIPHVVLEPIMPRLSVHYWMQAQKKERSPEEAKRIEQRIRAAKLPIIAELGTAVITVNEFLQLEAGDVIQLEQSIHEPLVVKIGHIPKFIGQPGKRNKKLAVQILAMIEGDEDDHDE | not soluble
4 | MAHHHHHHMAIPPHGFIEAIHASPLRCVLYVMGAGSSAIAQLTSVAGCSRTLLDARVPYAMAAALQMLDDQPPKMVSATVARQMAQHAHHRAVEYSNGDDDGTLVGIGSTSAVQTNRIRHGKDSAFVAAWSQRQVVEFAMELPGHLARAEQEEQVTLLLFKALAECAKVPFEISFVVEPKRISYIVPDSPLRRLLQGEMKFLVFNTYGELRANFVPYVAETSFAVKPENSWKALLFPGSFRPLHWGHTELARAAVRAMATMKGTLNSTSTDTSSPSWNVPDASNVQVTYEIAVDNADKGIIDSDVELKKRVQQFLQRGARVAVTRARLFTEKALLFPGHGFIVGIDTMKRILDPKYYDNSREAMLRAMEFIREQGGYFVVAGRASGGKDAVWEDLTSIEVPAEVESMLISIRKEDFCVDVSSTMLRERNKSTC | not soluble
5 | MRALLFTSVVLLALAFVEAKKQTITVKGTTICNKKRIQAEVTLWEKDTLDPDDKLASMQSNKEGEFSLTGSDDEITSISPYLIITHNCNVKKAGCKRVSEYLIPKEKIGGTYDMTYVTLDILSAKDKEKC | not soluble
6 | MSCHTSCIDHTSALIHCADEVFEKPLPHLFEAAVFLMGFTLWGKLEFNQRDGFLDCPHGDRVCGSGMMSKVDILQLTGHFFTNFNGRDYIENIQNLFDNQLASYHIRNQFLIGIQRLGHRKLLIAF | not soluble
7 | MGSDKIHHHHHHQPSSNRYARVDAAILSIPDEYTKKVDTFAEYINRKFKGDEAKMRAIYVWMTHRMAYNVFTTFTSRNEVYSEEKEVQETLSTRKGVCRQFALLFKTLAGKVGIKAYLIDGYGKSGNVVLPEVHEWCVAQVNGEWYFFDPTYDTGYIEDYRFVSAPDDVYFKQLPERFIQTHMPFDPLWQFLKRPYSYSEFEKGVLESGRNVPFFCWQDSLKVYDRQSWVEQLEAARSRILANGKGNDLVDYFLQLNQANTQVGKDSEAIDVYAAATDLQNRAVDSINVFIRYRKAGFRPRKAEAQVRRMIEVSEELTLRADSLINSVHTISPQYKQALLNLRESIMDLAMQIYKHKLFLERYYATKPSLRGNLLRR | not soluble
8 | MAHHHHHHMWAKYSSSAVEEASKQAKSFATYPSSTPDMSGDEKEAFHETNSRDAFTVALLKHVARNLGVQYMGDRVETSDSIVMDKLGRIKAEIRSRERLLGVENMGLIPLFIEAGDSSLTCEDSLIYYKKALDIVEANKDIKRDSNMMNDVGVSSFADLGSRFFRYGQYQVAERLFTMAAAISRDKVTGVAEEISFSTAQCGSQKSLQRLKGHLWDWKKAAEAANEDLSTLLSDATRNTHRFREMRDACSQTDLAEHRVAMPASQFIGTKREMKGLKGTRNGEELKRLVEYVFDPMSVEDGFTRQLLPKGSRNTTRLLSEHFTGSNPCLALRESIDCITSRIGAKADSINSSGGALRRELQTR | not soluble
9 | MKEQNESFVVDFVGGAVGHRFRSGEGRGQALPKAAGFTKGRTPKIVDATAGLGRDAFLLASLGAEVTLIERSPGMHAHLADGISRALEAGGAYAEAASRMTLLQGDSRQLLKELSPEVVVIDPMHPPRHNTALVKKEMRVLRELVGSDPDQVELMEVALAHATKRVVLKWPLRADPMPGIRKPSHQIIGKNTRYDVFMIFGNSLDQQELEHHHHHH | soluble
10 | MGHHHHHHGGHMSLPKFSPCLWFNTQAEEAANFYTTIFEKGAILSKTNYVNEEHQPQGTSLMTIEFTLANQTIIGLNGGPEFSFTPASSFFVECTTLPQTETLWKNLTADGQILMPFGEYPFSPLYGWVVDKFGVSWQVSFSGKEQTIVPTFMFANEKYGEAAKALSEWLAIFGPGEIIEKVEYEDGNIAQALFTLQEQPFRVMDARDKHDFDFTMAFSIYIDCENQEEIDRLWQQVTAKGKEWPCGWMEDQFGVSWQTGNPELKRYLSDSNPARANEVTKKLYQMKKIDLNQLKEVYDKYNHEGGS | soluble
11 | GCPRILIRCKQDSDCLAGCVCGPNGFCGSPA | soluble
12 | MSLEVTTPGKLFIAGEYAVVEPGHPAIIVAVDQFVTVTVEETTDEGSIQSAQYSSLPIRWTRRNGELVLDIRENPFHYVLAAIHLTEKYAQEQNKELSFYHLKVTSELDSSNGRKYGLGSSGAVTVGTVKALNIFYDLGLENEEIFKLSALAHLAVQGNGSCGDIAASCYGGWIAFSTFDHDWVNQKVATETLTDLLAMDWPELMIFPLKVPKQLRLLIGWTGSPASTSDLVDRVHQSKEEKQAAYEQFLMKSRLCVETMINGFNTGKISVIQKQITKNRQLLAELSSLTGVVIETEALKNLCDLAESYTGAAKSSGAGGGDCGIVIFRQKSGILPLMTAWEKDGITPLPLHVYTYGQKECKEKHEGHHHHHH | soluble
13 | MFPEQQKEEFVSVWVRDPRIQKEDFWHSYIDYEICIHTNSMCFTMKTSCVRRRYREFVWLRQRLQSNALLVQLPELPSKNLFFNMNNRQHVDQRRQGLEDFLRKVLQNALLLSDSSLHLFLQSHLNSEDIEACVSGQTKYSVEEAIHKFALMNRRFPEEEEEGKKDADVEYDSESSSSGLGHSSDDSSSHGCKTSPALQES | soluble
14 | ALQAAADIDTVVFDLNGTLTQGKMVVKSLHITDKKYLRPIALLESQSDHPVAKIIKSYMEQQDTASTEPLEITSIDKSHHSGMKGIINGEVFIIGNKDMLAANGITSIDKPYDNPEKGSVYIVRGTTVIGQIALIDPLREDAIATVKQLKRLGKSVHICTGADQATAEKYAALLGIPKDNICANTVGAVTKKGEVSKTSYIQQLKQKGFKVAMVGDAANDATAIAYSDIGIAVKSSIGDSITEQHAGIVVQQGLLFPIATAFDVAQKTKQNIFQNLFVSLSYNSIIT | not soluble
15 | MGSDKIHHHHHHEKKDKKENDTSAAQATETDCTAAELVTTEPEAEITISEMIDQRIKEEGKIMMYRMHFGPSKTPLEITEDLNVNIISYDGKELIDYGNSSNRRGETRLGDIIHNKVDYSTYDIGAYGGSWKRHRRVSGGDEKYVEEEGYVQREITTDDSGNNTQMETLYLYSKGTLYTREEGSEVWNQTEKNDNLPVVAFGTFERIKLDGKTYMTFCVRDDLNLIKYIIIPDNKFTENKTVVYDTPGTEGTTVNTVDYLKEYQAVPKEELEQMIVFPGSKKAESSQAAD | not soluble
16 | MKFDVIIIGGSYAGLSAALQLGRARKNILLVDAGERRNRFASHSHGFLGQDGKAPGEIIAEARRQIERYPTIHWVEGRVTDAKGSFGEFIVEIDGGRRETAGRLILAMGVTDELPEIAGLRERWGSAVFHCPYCHGYELDQGKIGVIAASPMAIHHALMLPDWGETTFFTNGIVEPDADQHALLAARGVRVETTRIREIAGHADVVLADGRSIALAGLFTQPKLRITVDWIEKLGCAVEEGPMGSTIVTDPMKQTTARGIFACGDVARPAGSVALAVGDGAMAGAAAHRSILFPEMR | soluble
17 | KSVVIGKDALIGWHGGANQSDEMWDQSVPSQYEKQFYRYLTRLRIKEAEFYNKVGVDPNITVYGHTRTNTCQRSTLANGWYYTESDMRHMGIKNLTVQGELLNTLNYNNSEINSCLMPQIFN | not soluble
18 | EVRLVSLRRAKAHEGLGFSIRGGSEHGVGIYVSLVEPGSLAEKEGLRVGDQILRVNDKSLARVTHAEAVKALKGSKKLVLSVYSAGRI | soluble
19 | MFKIQEVRELIKLIDSSNIDEFEYKKDGTTIKMKKRGNEVVAVQAPVAKQAVQPVAPVEVETTVAAAQVEVPKQEEKKAVQNENLHKITSPMVGTFYSSSSSSPDTPPYVSVGDRVSKDSIVCIVEAMKLFNEIDADVDGEIVEILVNNGQLVEYGQPLFLVKA | not soluble
20 | MGSDKIHHHHHHMIATTIAMDFCQTVTPSEIATVIDSYARGWFLMADEDSSDLGWYRSRDRCLIPLDNRFRYPRSLRRVLNQQRFEFAISRDFLGTIAGCADRPSTWISDELAEIYQQLQRYGWALSWEAWQGDRLVGGILGVAIGSLFIGESMFYHEPEASKAALVTLVQALQQGGWQVFDVQLTNPHLERFGSFCVSDRQYSAQIQTAIARPAKLVTPTGDRFASQPHSSAASDHG | not soluble
21 | MSPVDFKDKVVIITGAGGGLGKYYSLEFAKLGAKVVVNDLGGALNGQGGNSKAADVVVDEIVKNGGVAVADYNNVLDGDKIVETAVKNFGTVHVIINNAGILRDASMKKMTEKDYKLVIDVHLNGAFAVTKAAWPYFQKQKYGRIVNTSSPAGLYGNFGQANYASAKSALLGFAETLAKEGAKYNIKANAIAPLARSRMTESIMPPPMLEKLGPEKVAPLVLYLSSAENELTGQFFEVAAGFYAQIRWERSGGVLFKPDQSFTAEVVAKRFSEILDYDDSRKPEYLKNQYPFMLNDYATLTNEARKLPANDASGAPTVSLKDKVVLITGAGAGLGKEYAKWFAKYGAKVVVNDFKDATKTVDEIKAAGGEAWPDQHDVAKDSEAIIKNVIDKYGTIDILVNNAGILRDRSFAKMSKQEWDSVQQVHLIGTFNLSRLAWPYFVEKQFGRIINITSTSGIYGNFGQANYSSSKAGILGLSKTMAIEGAKNNIKVNIVAPHAETAMTLSIMREQDKNLYHADQVAPLLVYLGTDDVPVTGETFEIGGGWIGNTRWQRAKGAVSHDEHTTVEFIKEHLNEITDFTTDTENPKSTTESSMAILSAVGGD | soluble
22 | AEPDTESSELSGSVSYRIVSVVNTITASHWDEKELLDKAELIDYPVRKCAHMSEYAILTLLGFLTFSFLHGRGRFLVPIGVTFLYACTDEFHQLFVPGRAGR | not soluble
